pKd: −log10 of the molar value.
Assays:
[1] = molecular target: type 1 IGF receptor (IGF-1R) (human) (UniProt P08069); assay: displacement of 125I-IGF-1 from MCF7 cells, 4 C overnight
[2] = molecular target: type 1 IGF receptor (IGF-1R) (human) (UniProt P08069); assay: competition binding to IGF receptors against radioactive wild type IGF

type 1 IGF receptor (IGF-1R) (human), sequence (P08069 31-1367): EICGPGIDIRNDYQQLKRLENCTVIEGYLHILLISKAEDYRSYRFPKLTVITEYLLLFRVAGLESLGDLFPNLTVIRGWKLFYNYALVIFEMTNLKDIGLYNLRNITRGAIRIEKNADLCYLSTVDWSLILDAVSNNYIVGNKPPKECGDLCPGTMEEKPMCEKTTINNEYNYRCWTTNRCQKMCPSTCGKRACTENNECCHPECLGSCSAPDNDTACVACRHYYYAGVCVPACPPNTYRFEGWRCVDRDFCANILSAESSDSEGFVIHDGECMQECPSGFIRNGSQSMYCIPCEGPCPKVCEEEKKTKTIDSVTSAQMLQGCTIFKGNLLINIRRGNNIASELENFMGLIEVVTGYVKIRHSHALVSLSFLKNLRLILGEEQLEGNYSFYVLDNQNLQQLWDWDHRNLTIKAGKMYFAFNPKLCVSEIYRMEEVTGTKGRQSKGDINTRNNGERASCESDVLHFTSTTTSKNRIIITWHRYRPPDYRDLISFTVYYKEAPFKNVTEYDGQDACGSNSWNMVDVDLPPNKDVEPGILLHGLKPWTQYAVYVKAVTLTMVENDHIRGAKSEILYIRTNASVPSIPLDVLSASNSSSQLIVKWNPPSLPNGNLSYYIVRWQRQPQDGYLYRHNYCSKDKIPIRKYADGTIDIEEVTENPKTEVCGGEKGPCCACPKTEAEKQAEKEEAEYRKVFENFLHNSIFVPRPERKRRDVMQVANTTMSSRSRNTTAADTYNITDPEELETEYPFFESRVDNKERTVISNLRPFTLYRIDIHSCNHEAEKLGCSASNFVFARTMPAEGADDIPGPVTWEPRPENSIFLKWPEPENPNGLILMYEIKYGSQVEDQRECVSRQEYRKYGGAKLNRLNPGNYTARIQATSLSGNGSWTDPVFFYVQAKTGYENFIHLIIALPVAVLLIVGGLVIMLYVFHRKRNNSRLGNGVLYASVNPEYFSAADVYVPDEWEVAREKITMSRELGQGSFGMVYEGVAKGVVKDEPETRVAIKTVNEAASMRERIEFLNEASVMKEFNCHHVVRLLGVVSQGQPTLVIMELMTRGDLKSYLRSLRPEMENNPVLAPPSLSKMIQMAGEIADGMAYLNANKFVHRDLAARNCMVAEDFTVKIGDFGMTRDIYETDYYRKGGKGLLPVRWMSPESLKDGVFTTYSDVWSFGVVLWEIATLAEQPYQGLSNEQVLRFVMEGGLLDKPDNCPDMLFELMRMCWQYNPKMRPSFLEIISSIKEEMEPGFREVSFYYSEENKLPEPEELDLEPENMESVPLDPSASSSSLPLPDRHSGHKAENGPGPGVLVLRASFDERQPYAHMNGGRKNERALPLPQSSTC

pKd [1]: 8.52
pKd [2]: 9.00
Substance: long-R3-IGF (ligand)

Reference: patent US20260207757A1
